From publication PMC4737149, “The autoinhibitory CARD2-Hel2i Interface of RIG-I governs RNA selection” come the findings set out here.

The target in series [1] is T1, Helicase-RD (RIG-I lacking CARDs) (human, UniProt O95786 232-925).
T1 sequence: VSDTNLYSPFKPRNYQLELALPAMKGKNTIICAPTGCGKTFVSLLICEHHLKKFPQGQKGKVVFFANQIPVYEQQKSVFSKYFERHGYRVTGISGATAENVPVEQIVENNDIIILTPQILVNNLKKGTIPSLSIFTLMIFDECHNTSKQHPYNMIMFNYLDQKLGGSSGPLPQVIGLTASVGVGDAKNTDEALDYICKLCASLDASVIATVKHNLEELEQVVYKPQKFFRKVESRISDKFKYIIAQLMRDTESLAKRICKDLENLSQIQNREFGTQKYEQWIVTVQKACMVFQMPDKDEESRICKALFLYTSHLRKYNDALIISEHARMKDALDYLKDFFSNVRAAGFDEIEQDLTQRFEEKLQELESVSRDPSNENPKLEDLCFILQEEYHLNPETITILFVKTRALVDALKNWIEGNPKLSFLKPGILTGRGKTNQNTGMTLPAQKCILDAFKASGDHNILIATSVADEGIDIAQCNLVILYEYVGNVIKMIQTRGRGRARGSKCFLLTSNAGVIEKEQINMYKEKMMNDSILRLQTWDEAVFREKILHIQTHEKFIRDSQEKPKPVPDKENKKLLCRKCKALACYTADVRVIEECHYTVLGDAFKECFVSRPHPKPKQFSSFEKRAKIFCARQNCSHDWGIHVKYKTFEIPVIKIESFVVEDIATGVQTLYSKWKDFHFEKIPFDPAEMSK
In words: ATPase titration (Kd,app); ATP, 37 C; Buffer A (composition not in the material; 150 mM NaCl stated for some supplementary assays); anisotropy at 15 C with 1-2 nM (blunt) or 40 nM (non-blunt) labell. The following applies: protein: recombinant; tags: N-terminal SUMO fusion construct, His (Ni-NTA); single strand.

Series [2] addresses T2, RIG-I full length (wt) (human, UniProt O95786 1-925).
T2 sequence: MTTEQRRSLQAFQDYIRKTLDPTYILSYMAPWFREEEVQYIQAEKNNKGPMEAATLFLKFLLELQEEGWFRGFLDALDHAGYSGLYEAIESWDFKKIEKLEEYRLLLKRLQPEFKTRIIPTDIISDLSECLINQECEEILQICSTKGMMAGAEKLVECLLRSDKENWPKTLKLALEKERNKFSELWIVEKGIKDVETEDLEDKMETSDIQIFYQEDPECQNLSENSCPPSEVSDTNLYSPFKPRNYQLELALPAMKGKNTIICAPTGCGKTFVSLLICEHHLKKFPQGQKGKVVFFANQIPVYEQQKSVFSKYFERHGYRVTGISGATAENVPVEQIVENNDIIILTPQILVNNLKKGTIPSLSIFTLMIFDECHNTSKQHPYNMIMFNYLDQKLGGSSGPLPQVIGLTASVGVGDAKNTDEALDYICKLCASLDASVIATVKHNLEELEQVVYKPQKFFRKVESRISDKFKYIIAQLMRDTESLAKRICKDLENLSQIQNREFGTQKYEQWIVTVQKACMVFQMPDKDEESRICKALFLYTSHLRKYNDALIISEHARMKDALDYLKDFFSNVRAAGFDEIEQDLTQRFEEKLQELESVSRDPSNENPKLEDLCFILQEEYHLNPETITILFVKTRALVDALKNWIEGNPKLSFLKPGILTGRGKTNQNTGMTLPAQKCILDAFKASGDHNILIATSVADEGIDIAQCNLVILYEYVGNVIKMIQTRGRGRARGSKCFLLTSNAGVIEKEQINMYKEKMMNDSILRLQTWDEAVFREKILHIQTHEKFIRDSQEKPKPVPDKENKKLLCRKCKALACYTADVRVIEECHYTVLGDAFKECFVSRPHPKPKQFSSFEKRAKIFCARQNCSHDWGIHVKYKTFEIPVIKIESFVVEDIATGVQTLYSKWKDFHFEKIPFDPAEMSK
The series can be described thus: fluorescence anisotropy; no ATP, 15 C; Buffer A (composition not in the material; 150 mM NaCl stated for some supplementary assays); anisotropy at 15 C with 1-2 nM (blunt) or 40 nM (non-blunt) labell. The following applies: protein: recombinant, tags: N-terminal SUMO fusion construct, His (Ni-NTA).

Series [3] concerns the target T2, RIG-I full length (wt). In words: ATPase titration (Kd,app); ATP, 37 C; Buffer A (composition not in the material; 150 mM NaCl stated for some supplementary assays); anisotropy at 15 C with 1-2 nM (blunt) or 40 nM (non-blunt) labell. The following applies: protein: recombinant, tags: N-terminal SUMO fusion construct, His (Ni-NTA).
In series [4] the target is T1, Helicase-RD (RIG-I lacking CARDs). The series can be described thus: ATPase titration (Kd,app); ATP, 15 C; Buffer A (composition not in the material; 150 mM NaCl stated for some supplementary assays); anisotropy at 15 C with 1-2 nM (blunt) or 40 nM (non-blunt) labell. Particulars: protein: recombinant, tags: N-terminal SUMO fusion construct, His (Ni-NTA).
The target in series [5] is T3, RIG-I R109A/L110A (CARD2-Hel2i interface mutant) (human, UniProt O95786 1-925, R109A;L110A).
T3 sequence: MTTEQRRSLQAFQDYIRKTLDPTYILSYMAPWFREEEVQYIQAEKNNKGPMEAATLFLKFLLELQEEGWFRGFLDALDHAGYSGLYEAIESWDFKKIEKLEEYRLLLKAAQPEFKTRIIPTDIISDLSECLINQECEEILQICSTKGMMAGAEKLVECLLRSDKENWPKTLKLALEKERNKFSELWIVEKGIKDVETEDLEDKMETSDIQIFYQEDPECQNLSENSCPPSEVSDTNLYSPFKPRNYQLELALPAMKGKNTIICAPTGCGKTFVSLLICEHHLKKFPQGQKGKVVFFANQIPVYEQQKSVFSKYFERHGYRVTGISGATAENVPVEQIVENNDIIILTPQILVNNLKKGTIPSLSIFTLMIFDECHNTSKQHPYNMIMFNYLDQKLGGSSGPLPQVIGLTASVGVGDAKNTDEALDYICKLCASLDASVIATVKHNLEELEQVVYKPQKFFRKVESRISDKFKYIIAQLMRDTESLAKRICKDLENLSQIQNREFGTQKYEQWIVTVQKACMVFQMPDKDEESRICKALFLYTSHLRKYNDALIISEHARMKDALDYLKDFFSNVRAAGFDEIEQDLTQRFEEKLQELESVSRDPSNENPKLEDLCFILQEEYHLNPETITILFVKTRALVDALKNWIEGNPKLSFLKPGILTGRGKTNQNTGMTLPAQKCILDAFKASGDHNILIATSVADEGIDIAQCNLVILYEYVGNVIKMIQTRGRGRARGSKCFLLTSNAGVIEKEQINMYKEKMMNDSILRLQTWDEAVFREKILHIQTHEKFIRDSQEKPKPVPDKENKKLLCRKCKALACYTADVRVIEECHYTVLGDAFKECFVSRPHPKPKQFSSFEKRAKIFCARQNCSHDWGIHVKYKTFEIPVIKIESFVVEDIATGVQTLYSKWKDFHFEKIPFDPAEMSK
The description is as above. The following applies: protein: recombinant, tags: N-terminal SUMO fusion construct, His (Ni-NTA).

For series [6], the target named is T4, RIG-I C-terminal repressor domain (RD) (human, UniProt O95786 801-925).
T4 sequence: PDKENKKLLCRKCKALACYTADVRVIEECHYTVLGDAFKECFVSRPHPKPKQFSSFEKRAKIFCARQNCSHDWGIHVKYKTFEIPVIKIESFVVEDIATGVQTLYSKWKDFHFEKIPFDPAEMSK
In words: fluorescence anisotropy; no ATP, 15 C; Buffer A (composition not in the material; 150 mM NaCl stated for some supplementary assays); anisotropy at 15 C with 1-2 nM (blunt) or 40 nM (non-blunt) labell. Particulars: protein: recombinant; tags: N-terminal SUMO fusion construct, His (Ni-NTA); label: fluorescein on strand 2 in fluorescence assays; 3' overhangs 2 nt at both ends, 8 bp.

The target in series [7] is T2, RIG-I full length (wt). In words: ATPase titration (Kd,app); ATP, 15 C; Buffer A (composition not in the material; 150 mM NaCl stated for some supplementary assays); anisotropy at 15 C with 1-2 nM (blunt) or 40 nM (non-blunt) labell. Particulars: protein: recombinant; tags: N-terminal SUMO fusion construct, His (Ni-NTA); label: fluorescein on strand 2 in fluorescence assays; 3' overhangs 2 nt at both ends, 8 bp.

The target of series [8] is T2, RIG-I full length (wt). In words: ATPase titration (Kd,app); ATP, 150 mM NaCl, 37 C; Buffer A (composition not in the material; 150 mM NaCl stated for some supplementary assays); anisotropy at 15 C with 1-2 nM (blunt) or 40 nM (non-blunt) labell. The following applies: protein: recombinant, tags: N-terminal SUMO fusion construct, His (Ni-NTA).
In series [9] the target is T2, RIG-I full length (wt). The series can be described thus: ATPase titration (Kd,app); ATP, 15 C; same as Kd without ATP; Buffer A (composition not in the material; 150 mM NaCl stated for some supplementary assays); anisotropy at 15 C with 1-2 nM (blunt) or 40 nM (non-blunt) labell. Particulars: protein: recombinant, tags: N-terminal SUMO fusion construct, His (Ni-NTA), none in ATPase assays.

In series [10] the target is T1, Helicase-RD (RIG-I lacking CARDs). In words: stopped-flow kinetics (koff/kon); 15 C; koff 1.5e-3 s-1, kon 6e8 M-1 s-1; Buffer A (composition not in the material; 150 mM NaCl stated for some supplementary assays); anisotropy at 15 C with 1-2 nM (blunt) or 40 nM (non-blunt) labell. The following applies: protein: recombinant, tags: N-terminal SUMO fusion construct, His (Ni-NTA), none in ATPase assays.

Series [11] concerns the target T2, RIG-I full length (wt). In words: ATPase titration (Kd,app); ATP, 15 C; Buffer A (composition not in the material; 150 mM NaCl stated for some supplementary assays); anisotropy at 15 C with 1-2 nM (blunt) or 40 nM (non-blunt) labell. Particulars: protein: recombinant, tags: N-terminal SUMO fusion construct, His (Ni-NTA), label: fluorescein on strand 2 in fluorescence assays (5' for anisotropy, 3' for intensity), none in ATPase assays.

The mark [12] stands for this setting: hairpin with 5-nt U overhangs at both 5' and 3' ends.
Where [13] appears, read: label: fluorescein on strand 2 in fluorescence assays, 3' overhangs 2 nt at both ends, 8 bp.
[14] abbreviates: label: fluorescein on strand 2 in fluorescence assays (5' for anisotropy, 3' for intensity), none in ATPase assays, blunt.
Setting [15] is: label: 5' fluorescein on strand 2 in fluorescence assays, 5' overhangs 2 nt at both ends, 8 bp.

For CGUGAGACAU (ssRNA, 5'-triphosphate) [5'ppp ss10 RNA], the Kd in series [1] turned out to be 500 ± 100 nM.
Take UUUUUGAAUAUAAUAGUGAUAUUAUAUUCUUUUU (structured_RNA) [dsRNA stem (hairpin with two overhangs)]: the Kd is roughly 450 nM in the series with RIG-I full length (wt) [2] (setting [12]), 629 ± 165 nM with RIG-I full length (wt) [3] (setting [12]), 0.6 ± 0.4 nM in series [4] (setting [12]) and 53 ± 9 nM in [5] (setting [12]).

B1: 5'OH 3'ovg RNA (dsRNA)
RNA 1: CGUGAGACAU
RNA 2: GUCUCACGUA
As to B1, the Kd in series [4] (setting [13]) was roughly 1.5 nM; in [5] (setting [13]), 121 ± 14 nM.
Turning to CGUGAGACAU (ssRNA) [5'OH ss10 RNA], the Kd in [1] was 1600 ± 500 nM.
In the case of GAAUAUAAUAGUGAUAUUAUAUUC (structured_RNA) [5'OH HP], the Kd in the series with RIG-I full length (wt) [3] (hairpin, blunt) amounted to 39 ± 4 nM.

B2: 5'ppp 3'ovg RNA (dsRNA)
RNA 1: CGUGAGACAU
RNA 2: GUCUCACGUA
modifications: 5'-triphosphate on strand 1
For the molecule B2, the Kd in series [6] was 165 ± 2 nM; in the series with RIG-I full length (wt) [2] (setting [13]), 3 ± 0.4 nM; in series [4] (setting [13]), roughly 0.1 nM; in [5] (setting [13]), 16 ± 4 nM. In addition, the binding signal with RIG-I full length (wt) [7] was ~16 fold Kd,app/Kd without ATP.

B3: 5'ppp RNA (10-bp blunt) (dsRNA)
RNA 1: CGUGAGACAU
RNA 2: AUGUCUCACG
modifications: 5'-triphosphate on strand 1
B3: the Kd with RIG-I full length (wt) [2] (none in ATPase assays, blunt) is 0.4 ± 0.2 nM; in the series with RIG-I full length (wt) [8] (none in ATPase assays) it was 90 ± 29 nM; in [10], 0.0025 nM; in [5] (none in ATPase assays, blunt), 0.1 ± 0.1 nM. In addition, the binding signal with RIG-I full length (wt) [9] is 1 fold Kd,app/Kd without ATP.
For the molecule GAAUAUAAUAGUGAUAUUAUAUUC (structured_RNA, 5'-triphosphate) [5'ppp HP], the Kd with RIG-I full length (wt) [3] (hairpin, blunt) came to 6 ± 0.7 nM.

B4: 5'ppp RNA 3'F (dsRNA)
RNA 1: CGUGAGACAU
RNA 2: AUGUCUCACG
modifications: 5'-triphosphate on strand 1
As for B4, in the series with RIG-I full length (wt) [8] (label: 3' fluorescein on strand 2), the Kd stood at 73 ± 18 nM.

B5: 5'OH RNA (10-bp blunt) (dsRNA)
RNA 1: CGUGAGACAU
RNA 2: AUGUCUCACG
As for B5, the Kd with RIG-I full length (wt) [2] (setting [14]) was determined as 6 ± 0.4 nM; in [4] (setting [14]), 0.07 nM; in series [5] (setting [14]) it was 0.2 ± 0.3 nM. Besides, the binding signal in the series with RIG-I full length (wt) [11] is ~2.5 fold Kd,app/Kd without ATP.

B6: 5'ppp 5'ovg RNA (dsRNA)
RNA 1: CGUGAGACAU
RNA 2: UCAUGUCUCA
modifications: 5'-triphosphate on strand 1
As for B6, the Kd in series [4] (setting [15]) was roughly 0.1 nM; in series [5] (setting [15]) it was 43 ± 5 nM.

B7: 5'OH 5'ovg RNA (dsRNA)
RNA 1: CGUGAGACAU
RNA 2: UCAUGUCUCA
On to B7, for which the Kd with RIG-I full length (wt) [2] (setting [15]) is roughly 450 nM; in series [4] (setting [15]), roughly 1.5 nM; in series [5] (setting [15]), 64 ± 7 nM.
